Test results taken from patent US20060233785A1, “Immunointeractive molecules and uses thereof” (priority 2001, published 2006).
Substitutions are numbered along the chain they refer to. Entries after “also recorded” stand apart in the source; their conditions may differ. Like-named read-outs stand apart in the source and are kept apart here. Each block holds one molecule with its values, some of them ahead of it.

What was measured:
[1] = tested on: Hev b 6 specific IgE; experiment: ELISA for Hev b 6 specific human IgE (Examples 8 and 9); type: binding; conditions: for frequency of IgE reactivity in non-latex allergic subjects: 18 non-latex allergic subjects, compared with 6%; for latex allergic subjects positive for IgE binding by ELISA (positive/total) / latex allergic subjects positive for IgE binding by ELISA: 31 latex allergic subjects; for latex allergic subjects positive for IgE binding by ELISA: cut-off mean + 2 SD of non-latex allergic; for IgE binding by ELISA: sera of latex allergic, Hev b 6 sensitised subjects
Method: (§1) FIG. 6 is an image of sulphonation abolishing the IgE reactivity of rHev b 6. rHev b 6 (A) and sulphonated rHev b 6 (B) were resolved by 16% SDS-PAGE under non-reducing conditions. Gels were either stained with Coomassie Brilliant Blue (1) or transferred to nitrocellulose. Strips with transferred protein were incubated with the Hev b 6-specific mAb 1A5.4 and binding detected (2). Strips with transferred protein were also incubated with sera from two latex allergic, Hev b 6 sensitized subjects (3 and 4) and one non-latex-allergic, atopic subject (5). The presence or absence of IgE binding was then detected. […] Plates were coated with rHev b 6 and sulphonated rHev b 6 and the presence or absence of IgE-binding detected. As a positive control the Hev b 6-specific mAb 1A5 was used. NB indicates no binding of IgE was detected.
(§2) FIG. 7 is a graphical representation of the disruption of the first disulphide bond of Hev b 6 markedly decreasing IgE binding to rHev b6. IgE from the sera of 31 latex allergic and 18 non-latex allergic subjects assayed by ELISA for the ability to bind rHev b 6 (no substitution) and mutant rHev b 6 (cysteine to alanine substitution at amino acid 3). Plates were coated with both rHev b 6 and mutant rHev b 6 and incubated with subjects' sera (A) Population ELISA. Individual dots represent individual readings. The thin horizontal lines indicated the cut-off for positive for IgE binding to mutant rHev b 6 and rHev b 6, calculated as the mean of the readings for non-latex allergic subjects for each antigen plus 2 SD. The thick horizontal lines indicate the mean of each group. (B) Direct comparison of IgE and mAb binding to rHev b 6 and mutant rHev b 6. A1 to 11, latex-allergic subjects. N1, non-latex allergic subject. Dotted line indicates the cut-off for positive for IgE binding for mutant rHev b 6. The solid line indicates the cut-off for positive for IgE binding for rHev b 6.
(§3) Patient serum samples were tested for Hev b 6 specific IgE using our standard ELISA protocol (Sutherland et al. 2002, supra) with rabbit anti-human IgE (Dako, Denmark) at 1 in 1000 dilution followed by swine anti-rabbit IgG-HRP conjugate (Promega) at I in 1000 dilution. For the Hev b 6-specific mAb 1A5.4 (IgG1/kappa isotype) binding was detected using sheep anti-mouse Ig-HRP (Silenus) at 1 in 1000 dilution.

[2] = tested on: Hev b 6-specific mAb 1A5.4; experiment: ELISA for Hev b 6-specific mAb binding to rHev b 6 forms; parameters: species or system mouse
Method: as §1, §2, §3

[3] = tested on: basophils; experiment: Basophil Activation Test; type: cell-based, human; conditions: for activated basophils / basophil activation above background / basophils activated (above background): 10 μg/ml; for basophil activation above background levels / basophil activation over background: latex allergic subjects; for basophil activation above background levels: 0.1 μg/ml (FIGS. 9B and C); for basophil activation over background: 1 μg/ml; for basophil activation: non-latex allergic control subject N2; for basophil activation above background: one subject (FIG. 9B); for basophils activated (above background): latex allergic subjects (FIGS. 9B, C and D)
Method: FIG. 9 is a graphical representation of the basophil Activation Test on a latex allergic donor. Whole blood from a latex allergic, Hev b 6 sensitized subject was incubated with latex allergens. The cells were stained with FITC labelled anti-human IgE polyclonal antibodies and a PE labelled monoclonal anti-human CD63 antibody. Cells were analysed by flow cytometry defining basophils on the basis of scatter (A) and high IgE staining (B). The percentage of activated basophils expressing CD63 was determined (C).
The Basophil Activation Test was performed on whole blood from (A) non-latex allergic subject N2; (B) latex-allergic subject A7; (C) latex-allergic subject A8 and (D) latex-allergic subject A10. Antigens: latex glove extract (GE), hevein peptide (hevein), rHev b 6, mutant rHev b 6 (MU rHev b 6), sulphonated rHev b 6, (sul. rHev b 6), rHev b 5, KLH and house dust mite extract (HDM). All allergens were used at 10 μg/ml except for rHev b 6 and mutant rHev b 6 which were used at 0.1, 1 and 10 μg/ml. The cut-off for positive was set at the level of activated basophils after incubation in stimulation buffer alone (no antigen, horizontal line). A plus symbol (+) indicates antigen to which a subject has either a positive clinical history of allergy and/or a positive reading on an allergen-specific IgE ELISA.
A basophil activation assay based on flow cytometry was used to quantify the activation of basophils after incubation with various allergens. This assay was modified from Paris-Kohler A, Demoly P, Persi L, Lebel B, Bousquet J, Arnoux B. In vitro diagnosis of cypress pollen allergy by using cytofluorimetric analysis of basophils (Basotest). J Allergy Clin Immunol 2000; 105:339-45. Whole blood was collected in 6 ml heparinised vacutainers (Greiner). 100 μl aliquots were preincubated with stimulation buffer (20 mM Hepes, 133 mM NaCl, 5 mM KCl, 7 mM CaCl2, 3.5 mM MgCl2, 1 mg/ml BSA, 20 μl/ml heparin, pH 7.4) containing 2 ng/ml IL-3, for 10 min at 37° C., to increase the sensitivity of the assay. Samples were incubated for 20 min at 37° C. with 100 μl of stimulation buffer alone or stimulation buffer containing either rabbit anti-human IgE (Dako) at 1 in 500 dilution, 2 μM N-fMLP (Sigma, Mo, USA), crude allergen extracts, recombinant latex allergens or Keyhole Limpet Haemocyanin (KLH) (Sigma, Mo, USA). Basophil activation was stopped by incubating at 4° C. for 5 min. Normal goat serum (10 μl) was added to each tube to block non-specific binding of the detection antibody (goat anti-human IgE-FITC) and incubated for 10 min at 4° C. Samples were incubated with goat anti-human IgE-FITC (Caltag, Birmingham, Calif.) at a dilution of 1 in 2.5, and mouse anti-human CD63-R-Phycoerythrin (PE; Caltag, Birmingham, Calif.) at a dilution of 1 in 20, in a 20 μl volume of wash buffer (20 mM HEPES, 133 mM NaCl, 5 mM KCl, 0.27 mM EDTA, pH7.3). RBC were lysed by the addition of 2 ml FACS lysing solution (39 mM NH4Cl, 2.5 mM KHCO3, 0.2 mM EDTA) and incubation for 10 min at room temperature. Cells were centrifuged (250 g, 5 min at 4° C.), resuspended in 3 ml wash buffer, and centrifuged as before. Pellets were resuspended in 200 μl wash buffer, and analysed by flow cytometry (FACScalibur, Becton Dickinson) within 2 h of the experiment. 7AAD (Sigma, Mo, USA) was added to the samples 5 min prior to FACS analysis.

latex allergic subjects positive for IgE binding by ELISA (positive/total) [1]: 21/31 | latex allergic subjects positive for IgE binding by ELISA [1]: 68% | Hev b 6-specific mAb binding by ELISA [2]: bound to a similar extent | Hev b 6-specific mAb binding by ELISA ([2]; listed as rHevb 6): comparable reactivity
B1: rHev b 6: recombinant Hev b 6 (prohevein) expressed in E. coli from pPROEX-HTa with 6-His tag (protein)
chain: EQCGRQAGGKLCPNNLCCSQWGWCGSTDEYCSPDHNCQSNCKDSGEGVGGGSASNVLATYHLYNSQDHGWDLNAASAYCSTWDANKPYSWRSKYGWTAFCGPVGAHGQSSCGKCLSVTNTGTGAKTTVRIVDQCSNGGLDLDVNVFRQLDTDGKGYERGHITVNYQFVDCGDSFNPLFSVMKSSVIN
modifications: left off: small tags and cut ends
notes: recombinant Hev b 6 (prohevein) expressed in E. coli from pPROEX-HTa with 6-His tag
frequency of IgE reactivity in non-latex allergic subjects [1]: same frequency | IgE binding by ELISA [1]: bound | activated basophils ([3]; another patient (FIG. 9C)): 60% | basophil activation above background levels [3]: 30-50% | basophil activation over background [3]: 50-60% | basophil activation [3]: negligible | basophil activation above background [3]: 60% | activated basophils ([3]; third patient): 70%

latex allergic subjects positive for IgE binding by ELISA (positive/total) [1]: 2/31 | latex allergic subjects positive for IgE binding by ELISA [1]: 6% | Hev b 6-specific mAb binding by ELISA [2]: comparable reactivity
B2: mutant rHev b 6: rHev b 6 with cysteine to alanine substitution at amino acid 3 of the mature protein (protein)
chain: B1 chain with C3A
modifications: left off: small tags and cut ends
notes: rHev b 6 with cysteine to alanine substitution at amino acid 3 of the mature protein
frequency of IgE reactivity in non-latex allergic subjects [1]: same frequency | activated basophils ([3]; another patient (FIG. 9C)): 40% | basophils activated (above background) [3]: up to 49% | basophil activation above background levels [3]: no activation above background levels | basophil activation over background [3]: 5-10% | basophil activation [3]: negligible | basophil activation above background [3]: 15% | activated basophils ([3]; third patient): no activation

Hev b 6-specific mAb binding by ELISA [2]: bound to a similar extent
B3: sulphonated rHev b 6: purified rHev b 6 sulphonated in sulphonation buffer to improve solubility (protein)
chain: B1 chain
modifications: left off: small tags and cut ends
IgE binding by ELISA [1]: no detectable binding; also recorded: lack of reactivity | basophils activated (above background) [3]: less than 5%
